Results: article PMC3078644

Target: Sortilin (immobilised for SPR) (UniProt Q99523)
Test: SPR

Sortilin (immobilised for SPR), sequence (P20783 whole entry): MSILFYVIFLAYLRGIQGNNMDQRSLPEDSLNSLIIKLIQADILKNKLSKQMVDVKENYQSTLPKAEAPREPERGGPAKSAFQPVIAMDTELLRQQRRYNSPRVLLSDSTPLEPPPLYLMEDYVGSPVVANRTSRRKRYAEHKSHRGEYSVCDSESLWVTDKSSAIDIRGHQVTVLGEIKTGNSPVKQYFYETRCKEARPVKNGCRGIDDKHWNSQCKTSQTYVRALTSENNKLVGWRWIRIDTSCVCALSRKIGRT

Kd: 20 nM
Substance: GST-NT3pro (prodomain of proNT3 fused to glutathione-S-transferase) (domain or fragment; other documents disagree on this pair)
